{
  "source": "patent US7449443B2",
  "about": "“Method for stabilization of proteins using non-natural amino acids” (California Institute of Technology, priority 2000, dated 2008)",
  "type_in_all_cases": "physicochemical",
  "key": {"[1]": {"experiment": "CD thermal unfolding of GCN4-p1 coiled-coil peptides", "procedure": "Circular Dichroism (CD) Analysis. CD spectra were recorded on an Aviv 62DS spectropolarimeter (Lakewood, N.J.) in PBS buffer, pH 7.4. All peptide concentrations were determined by amino acid analysis of a stock solution (5 mg/ml). Experiments were performed in a rectangular cell with pathlength of 1 cm for low concentration samples and pathlength of 1 mm for high concentration samples. Spectra were scanned from 250 nm to 200 nm with data taken every 1 nm. The temperature of the solution was maintained by a thermostatically controlled cuvette holder (HP model 89101A). Temperature scans were performed from 0° C. to 100° C. in 1° C. steps. Three scans were performed on a single sample and averaged. Each data point was collected after 30 seconds of thermal equilibration at the desired temperature. Urea titration scans were performed manually starting with the 8 M concentrated sample followed by serial dilution to the desired urea concentration. At each concentration, the sample was allowed to equilibrate for 5 min before recording the CD signal.\nThe analysis of CD thermal melting data was performed according to a previously described procedure using a two-state model (Schneider, J. P.; Lear, J. D.; DeGrado, W. F. J. Am. Chem. Soc. 1997, 119, 5742-5743). Temperature-dependent ellipticity data for each protein at different concentrations were fitted globally using a non-linear least-squares fitting procedure supplied with the Origin 6.0 software. For wild-type A1, the concentrations used for curve fitting were 10 and 100 μM, while 2 and 100 μm were used to fit data for the 92% fluorinated A1. The thermodynamic quantities Tm, ΔHm, ΔCp and Kd were parameters of the fitting procedure and are reported in the 1 M standard state. The free energy of folding at any temperature is given by equation 1. ΔG°=ΔHm(1−T/Tm)−ΔCp((Tm−T)+T1n(T/Tm) (1)\nThe thermal stabilities of the coiled-coil dimers of Leu-GCN4-p1 and Tfl-GCN4-p1 were examined by CD spectroscopy (FIG. 2B). A significant increase in the thermal stability of Tfl-GCN4-p1 as compared to Leu-GCN4-p1 is reflected in an elevation of the thermal denaturation temperature from 48° C. to 61° C. The 13° C. increase in Tm is remarkable in view of the fact that no increase in the thermal stability of GCN4-p1 has been reported based solely on substitution of the leucine residues at the d-positions. […] As expected for a monomer-dimer equilibrium, the denaturation curves depend on the peptide concentrations, and their midpoints shift to higher temperature as the concentrations of peptides are increased (FIG. 2C). The thermodynamic changes associated with the transition (folded dimer to unfolded monomers) is calculated from the melting curves by fitting the data to a monomer-dimer equilibrium (J. P. Schneider, J. D. Lear and W. F. DeGrado, J. Am. Chem. Soc. 119, 5742, 1997). Global analysis of the thermal unfolding curves at two different concentrations, approximately 85 μM and 3 μM, gave a calculated ΔH° of 60.2 kcal mol^−1, Tm of 385.4 K and ΔCp of 530 cal mol^−1 K^−1 for Tfl-GCN4-p1 (1 M standard state); the corresponding values for Leu-GCN4-p1 are 70.3 kcal mol^−1, 365.6 K and 740 cal mol^−1 K^−1 respectively."}, "[2]": {"experiment": "Guanidine hydrochloride (GuHCl) titration monitored by CD at 222 nm", "conditions": "at each temperature examined; 30 μM peptide", "procedure": "The difference in the ability to these molecules to resist denaturation is examined at 30° C. (open symbols) and 50° C. (closed symbols). The ellipticity is monitored at 222 nm and with a peptide concentration of 30 μM. Insert: GuHCl titration midpoint concentration, as defined by the concentration of GuHCl that is needed to denature 50% of the peptides, are plotted as a function of temperature, as described in Examples 5."}, "[3]": {"experiment": "Sedimentation equilibrium ultracentrifugation (aggregation state)", "conditions": "concentration range approximately 10 μM-40 μM", "procedure": "Ultracentrifugation. Sedimentation equilibrium analysis of the wild type proteins GCN4-p1 and A1 and the corresponding artificial proteins containing the non-natural amino acids was performed using a Beckman XLI analytical ultracentrifuge, recording interference data and radial absorbance at 236 and 280 nm at the same time. […] The samples were centrifuged at 35000, 40000, 45000 rpm, until equilibrium was reached. Partial specific volumes were calculated by the residue-weighted average method of Cohn and Edsall (Harding, S. E.; Rowe, A. J.; Harton, J. C. Analytic Ultracentrifugation in Biochemistry and Polymer Science; The Royal Society for Chemistry: Cambridge, 1992). Solution densities were estimated using solute concentration-dependent density tables in the CRC Handbook of Chemistry and Physics. The data were fit as single species to provide an estimate of the aggregation states. Curve fitting of analytical ultracentrifuge data was done using Igor Pro (Wavemetrics Inc., Oswego WS) with procedures adapted from Brooks et al. (Brooks, I. S.; Soneson, K. K.; Hensley, P. Biophys. J. 1993, 64, 244) by Dr. James D. Lear.\nSecondary structures of wild type polypeptide Leu-GCN4-p1 and the corresponding artificial polypeptide Tfl-GCN4-p1 were analyzed by circular dichroism (CD). […]"}, "[4]": {"conditions": "global analysis of thermal unfolding curves, 1 M standard state"}},
  "data": [
    {"substance": "Tfl-GCN4-p1: fluorinated GCN4-p1 leucine zipper peptide with trifluoroleucine at the four d-positions", "values": [
      {"measurement": "increase in Tm compared to Leu-GCN4-p1", "setting": "[1]; CD spectroscopy", "result": 13, "unit": "°C"},
      {"measurement": "thermal denaturation temperature (Tm)", "setting": "[1]; CD spectroscopy, coiled-coil dimers", "result": 61, "unit": "°C"},
      {"measurement": "ΔH°", "setting": "[1]; global analysis of thermal unfolding curves at approximately 85 μM and 3 μM, 1 M standard state", "result": 60.2, "unit": "kcal/mol"},
      {"measurement": "Tm", "setting": "[1]; [4]", "result": 112.2, "unit": "°C"},
      {"measurement": "ΔCp", "setting": "[1]; [4]", "result": 530, "unit": "cal mol^−1 K^−1"},
      {"measurement": "concentration of GuHCl needed to unfold 50% of the peptide, versus wild-type peptide", "setting": "[2]", "result": "higher"},
      {"measurement": "fraction dimeric", "setting": "[3]", "result": "approximately 85%"}
    ]}
  ]
}
